Legend:
Format in all cases: biochemical
[1] = Penicillium oxalicum glucoamylase: temperature optimum (Reaction condition assay); conditions: for Relative activity (%): Temperature optimum
Description: (§1) Substrate: 1% soluble starch (Sigma S-9765) in deionized water
Reaction buffer: 0.1 M Acetate buffer at pH 5.3 Glucose concentration determination kit: Wako glucose assay kit (LabAssay glucose, WAKO, Cat#298-65701).
To assess the temperature optimum of the Penicillium oxalicum glucoamylase the “Reaction condition”-assay described above was performed at 20, 30, 40, 50, 60, 70, 80, 85, 90 and 95° C.

[2] = Penicillium oxalicum glucoamylase: pH optimum; conditions: for Relative activity (%): pH optimum
Description: as §1
(§2) 20 microL soluble starch and 50 microL acetate buffer at pH 5.3 were mixed. 30 microL enzyme solution (50 micro g enzyme protein/ml) was added to a final volume of 100 microL followed by incubation at 37° C. for 15 min.
(§3) The glucose concentration was determined by Wako kits.
(§4) pH optimum. To assess the pH optimum of the Penicillium oxalicum glucoamylase the Reaction condition assay described above was performed at pH 2.0, 3.0, 3.5, 4.0, 4.5, 5.0, 6.0 7.0, 8.0, 9.0, 10.0 and 11.0. Instead of using the acetate buffer described in the Reaction condition assay the following buffer was used 100 mM Succinic acid, HEPES, CHES, CAPSO, 1 mM CaCl2, 150 mM KCl, 0.01% Triton X-100, pH adjusted to 2.0, 3.0, 3.5, 4.0, 4.5, 5.0, 6.0 7.0, 8.0, 9.0, 10.0 or 11.0 with HCl or NaOH.

[3] = Penicillium oxalicum glucoamylase: pH stability
Description: as §1, §2, §3, §4
To assess the […] of the Penicillium oxalicum glucoamylase the Reaction condition assay was modifed in that the enzyme solution (50 micro g/mL) was preincubated for 20 hours in buffers with pH 2.0, 3.0, 3.5, 4.0, 4.5, 5.0, 6.0 7.0, 8.0, 9.0, 10.0 and 11.0 using the buffers described under pH optimum. After preincubation, 20 microL soluble starch to a final volume of 100 microL was added to the solution and the assay was performed as described above.

[4] = target: T1, aorsin (Aspergillus oryzae, UniProt Q8NK92); assay: PE001 protease stability, SDS-PAGE after protease treatment
T1 sequence (Q8NK92 216-652): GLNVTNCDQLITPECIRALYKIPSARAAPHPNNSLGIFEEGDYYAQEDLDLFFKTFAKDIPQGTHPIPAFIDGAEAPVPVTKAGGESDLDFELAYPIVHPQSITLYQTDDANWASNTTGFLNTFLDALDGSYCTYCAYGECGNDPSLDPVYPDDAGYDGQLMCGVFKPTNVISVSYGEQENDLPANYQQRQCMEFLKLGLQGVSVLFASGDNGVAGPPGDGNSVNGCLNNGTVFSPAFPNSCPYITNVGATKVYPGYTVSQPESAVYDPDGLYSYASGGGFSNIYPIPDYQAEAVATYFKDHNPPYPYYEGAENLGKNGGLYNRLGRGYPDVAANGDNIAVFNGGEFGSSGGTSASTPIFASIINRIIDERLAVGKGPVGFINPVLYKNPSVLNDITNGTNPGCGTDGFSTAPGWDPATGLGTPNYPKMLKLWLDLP
Description: (§5) 40 μl enzyme solutions (1 mg/ml) in 50 mM sodium acetate buffer, pH 4.5, were mixed with 1/10 volume of 1 mg/ml protease solutions such as aspergillopepsin I described in Biochem J. 1975 April; 147(1):45-53, or the commercially available product from Sigma and aorsin described in Biochemical journal [0264-6021] Ichishima yr: 2003 vol:371 iss:Pt 2 pg:541 and incubated at 4 or 32° C. overnight. As a control experiment, H2O was added to the sample instead of proteases. The samples were loaded on SDS-PAGE to see if the glucoamylases are cleaved by proteases.

[5] = tested on: aspergillopepsin I; assay: as above
Description: as §5

[6] = Glucoamylase activity (AGU) of variant compared to parent; conditions: 37° C., pH 4.3, maltose 100 mM
Description: The Novo Glucoamylase Unit (AGU) is defined as the amount of enzyme, which hydrolyzes 1 micromole maltose per minute under the standard conditions 37° C., pH 4.3, substrate: maltose 23.2 mM, buffer: acetate 0.1 M, reaction time 5 minutes.
An autoanalyzer system may be used. Mutarotase is added to the glucose dehydrogenase reagent so that any alpha-D-glucose present is turned into beta-D-glucose. Glucose dehydrogenase reacts specifically with beta-D-glucose in the reaction mentioned above, forming NADH which is determined using a photometer at 340 nm as a measure of the original glucose concentration.
The glucoamylase activity measures as AGU as described above was checked for the purified enzymes of the wild type Penicillium oxalicum and the variant glucoamylase.
The Glucoamylase Unit (AGU) was defined as the amount of enzyme, which hydrolyzes 1 micromole maltose per minute under the standard conditions (37° C., pH 4.3, substrate: maltose 100 mM, buffer: acetate 0.1 M, reaction time 6 minutes).

[7] = aspergillopepsin I, incubation 32° C. overnight

B1: Penicillium oxalicum glucoamylase: wild type Penicillium oxalicum glucoamylase disclosed in SEQ ID NO: 9 (protein, listed as Penicillium oxalicum)
chain: MRLTLLSGVAGVLCAGQLTAARPDPKGGNLTPFIHKEGERSLQGILDNLGGRGKKTPGTAAGLFIASPNTENPNYYYTWTRDSALTAKCLIDLFEDSRAKFPIDRKYLETGIRDYVSSQAILQSVSNPSGTLKDGSGLGEPKFEIDLNPFSGAWGRPQRDGPALRATAMITYANYLISHGQKSDVSQVMWPIIANDLAYVGQYWNNTGFDLWEEVDGSSFFTIAVQHRALVEGSQLAKKLGKSCDACDSQPPQILCFLQSFWNGKYITSNINTQASRSGIDLDSVLGSIHTFDPEAACDDATFQPCSARALANHKVYVDSFRSIYKINAGLAEGSAANVGRYPEDVYQGGNPWYLATLGASELLYDALYQWDRLGKLEVSETSLSFFKDFDATVKIGSYSRNSKTYKKLTQSIKSYADGFIQLVQQYTPSNGSLAEQYDRNTAAPLSANDLTWSFASFLTATQRRDAVVPPSWGAKSANKVPTTCSASPVVGTYKAPTATFSSKTKCVPAKDIVPITFYLIENTYYGENVFMSGNITALGNWDAKKGFPLTANLYTQDQNLWFASVEFIPAGTPFEYKYYKVEPNGDITWEKGPNRVFVAPTGCPVQPHSNDVWQF
activity maintained at 95° C. ([1]; 95° C.): more than 80% | Relative activity (%) ([1]; 20° C.): 63.6% | Relative activity (%) ([1]; 30° C.): 71.7% | Relative activity (%) ([1]; 40° C.): 86.4% | Relative activity (%) ([1]; 50° C.): 99.4% | Relative activity (%) ([1]; 60° C.): 94.6% | Relative activity (%) ([1]; 70° C.): 100.0% | Relative activity (%) ([1]; 80° C.): 92.9% | Relative activity (%) ([1]; 85° C.): 92.5% | Relative activity (%) ([1]; 90° C.): 82.7% | Relative activity (%) ([1]; 95° C.): 82.8% | pH of highest activity ([2]; at the given conditions): 5.0 | activity maintained from pH 2 to 7 ([2]; pH 2 to 7): more than 50% | Relative activity (%) ([2]; pH 2.0): 71.4% | Relative activity (%) ([2]; pH 3.0): 78.6% | Relative activity (%) ([2]; pH 3.5): 77.0% | Relative activity (%) ([2]; pH 4.0): 91.2% | Relative activity (%) ([2]; pH 4.5): 84.2% | Relative activity (%) ([2]; pH 5.0): 100.0% | Relative activity (%) ([2]; pH 6.0): 55.5% | Relative activity (%) ([2]; pH 7.0): 66.7% | Relative activity (%) ([2]; pH 8.0): 30.9% | Relative activity (%) ([2]; pH 9.0): 17.8% | Relative activity (%) ([2]; pH 10.0): 15.9% | Relative activity (%) ([2]; pH 11.0): 16.1% | Relative activity (%) ([3]; preincubated 20 hours at pH 2.0): 17.4% | Relative activity (%) ([3]; preincubated 20 hours at pH 3.0): 98.0% | Relative activity (%) ([3]; preincubated 20 hours at pH 3.5): 98.0% | Relative activity (%) ([3]; preincubated 20 hours at pH 4.0): 103.2% | Relative activity (%) ([3]; preincubated 20 hours at pH 4.5): 100.0% | Relative activity (%) ([3]; preincubated 20 hours at pH 5.0): 93.4% | Relative activity (%) ([3]; preincubated 20 hours at pH 6.0): 71.2% | Relative activity (%) ([3]; preincubated 20 hours at pH 7.0): 90.7% | Relative activity (%) ([3]; preincubated 20 hours at pH 8.0): 58.7% | Relative activity (%) ([3]; preincubated 20 hours at pH 9.0): 17.4% | Relative activity (%) ([3]; preincubated 20 hours at pH 10.0): 17.0% | Relative activity (%) ([3]; preincubated 20 hours at pH 11.0): 17.2% | cleaved glucoamylase (ca. 60 kDa) ([4]; incubation 4° C. overnight): 60% | intact glucoamylase (ca. 70 kDa) ([4]; incubation 4° C. overnight): 40% | cleaved glucoamylase (ca. 60 kDa) ([4]; incubation 32° C. overnight): 90% | intact glucoamylase (ca. 70 kDa) ([4]; incubation 32° C. overnight): 10% | intact glucoamylase (ca. 70 kDa) ([5]; aspergillopepsin I, incubation 4° C. overnight): 100% | cleaved glucoamylase (ca. 60 kDa) [5, 7]: 10% | intact glucoamylase (ca. 70 kDa) [5, 7]: 90% | SDS-PAGE result after protease treatment ([5]; proteases (aspergillopepsin I, aorsin)): degraded by proteases | Relative specific activity AGU/mg [6]: 100%
